For one substance, pIC50 of inhibition of sodium current, automated patch clamp (QPatch); fitted Emax 100 % results are on record in article PMC5206724, “Insensitivity to pain induced by a potent selective closed-state Nav1.7 inhibitor” (Scientific Reports, 2017).

Experiment [1] deals with human Nav1.1 (human) (UniProt P35498).
For experiment [2], the target named is human Nav1.3 (human) (UniProt Q9NY46).
Experiment [3] concerns the target human Nav1.2 (human) (UniProt Q99250).
Experiment [4] deals with human Nav1.6 (human) (UniProt Q9UQD0).
Experiment [5] deals with human Nav1.4 (human) (UniProt P35499).
For experiment [6], the target named is human Nav1.5 (human) (UniProt Q14524).
human Nav1.5 (human), sequence (Q14524 whole entry): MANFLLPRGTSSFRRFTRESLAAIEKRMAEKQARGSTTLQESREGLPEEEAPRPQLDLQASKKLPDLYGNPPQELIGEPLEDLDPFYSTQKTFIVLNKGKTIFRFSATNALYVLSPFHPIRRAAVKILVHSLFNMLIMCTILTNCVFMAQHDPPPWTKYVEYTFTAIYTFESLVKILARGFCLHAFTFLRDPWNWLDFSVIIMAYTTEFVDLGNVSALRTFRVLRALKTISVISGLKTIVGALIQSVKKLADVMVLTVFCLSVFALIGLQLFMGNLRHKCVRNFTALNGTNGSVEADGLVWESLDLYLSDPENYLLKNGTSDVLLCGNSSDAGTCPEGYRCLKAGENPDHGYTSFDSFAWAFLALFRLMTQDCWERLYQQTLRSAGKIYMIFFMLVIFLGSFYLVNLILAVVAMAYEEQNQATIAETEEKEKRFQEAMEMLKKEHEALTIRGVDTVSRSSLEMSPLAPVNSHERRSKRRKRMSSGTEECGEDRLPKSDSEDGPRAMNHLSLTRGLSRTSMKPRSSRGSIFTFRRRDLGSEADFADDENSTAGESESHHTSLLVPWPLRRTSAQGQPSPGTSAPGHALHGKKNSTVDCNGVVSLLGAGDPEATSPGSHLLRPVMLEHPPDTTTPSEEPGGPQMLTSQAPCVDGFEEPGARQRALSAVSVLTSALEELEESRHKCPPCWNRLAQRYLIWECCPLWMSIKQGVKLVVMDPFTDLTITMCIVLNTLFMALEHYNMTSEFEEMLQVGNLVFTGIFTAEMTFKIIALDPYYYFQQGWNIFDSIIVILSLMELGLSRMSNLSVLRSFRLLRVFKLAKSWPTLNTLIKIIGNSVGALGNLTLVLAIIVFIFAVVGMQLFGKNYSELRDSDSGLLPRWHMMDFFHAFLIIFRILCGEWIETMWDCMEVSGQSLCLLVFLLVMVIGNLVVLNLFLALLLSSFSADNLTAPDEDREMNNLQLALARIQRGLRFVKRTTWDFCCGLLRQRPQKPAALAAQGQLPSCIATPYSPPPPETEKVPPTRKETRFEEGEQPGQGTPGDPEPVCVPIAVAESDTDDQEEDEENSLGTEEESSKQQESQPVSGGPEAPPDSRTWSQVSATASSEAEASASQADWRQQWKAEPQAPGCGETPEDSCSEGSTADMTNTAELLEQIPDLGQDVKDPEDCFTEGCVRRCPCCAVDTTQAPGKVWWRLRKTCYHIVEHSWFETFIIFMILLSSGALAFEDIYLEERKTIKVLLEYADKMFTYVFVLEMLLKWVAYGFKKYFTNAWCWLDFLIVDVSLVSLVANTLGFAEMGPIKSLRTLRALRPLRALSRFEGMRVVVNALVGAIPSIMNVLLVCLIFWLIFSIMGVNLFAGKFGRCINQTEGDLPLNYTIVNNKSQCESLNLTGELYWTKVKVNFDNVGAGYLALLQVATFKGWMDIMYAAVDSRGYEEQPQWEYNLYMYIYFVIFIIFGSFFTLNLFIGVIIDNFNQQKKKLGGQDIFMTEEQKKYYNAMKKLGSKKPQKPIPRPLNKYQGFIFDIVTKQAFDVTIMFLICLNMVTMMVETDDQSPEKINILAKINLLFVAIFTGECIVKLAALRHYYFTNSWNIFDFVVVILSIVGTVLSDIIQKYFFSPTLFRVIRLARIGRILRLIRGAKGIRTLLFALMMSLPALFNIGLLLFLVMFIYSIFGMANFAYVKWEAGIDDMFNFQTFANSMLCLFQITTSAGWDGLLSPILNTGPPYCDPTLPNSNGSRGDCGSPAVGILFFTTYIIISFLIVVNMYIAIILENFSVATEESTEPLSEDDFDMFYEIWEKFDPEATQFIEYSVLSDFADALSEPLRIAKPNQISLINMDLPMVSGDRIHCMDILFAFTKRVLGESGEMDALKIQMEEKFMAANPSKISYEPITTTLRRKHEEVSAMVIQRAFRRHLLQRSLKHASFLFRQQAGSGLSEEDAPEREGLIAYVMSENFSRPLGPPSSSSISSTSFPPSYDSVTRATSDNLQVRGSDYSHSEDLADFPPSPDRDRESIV

human Nav1.3 (human), sequence (Q9NY46 whole entry): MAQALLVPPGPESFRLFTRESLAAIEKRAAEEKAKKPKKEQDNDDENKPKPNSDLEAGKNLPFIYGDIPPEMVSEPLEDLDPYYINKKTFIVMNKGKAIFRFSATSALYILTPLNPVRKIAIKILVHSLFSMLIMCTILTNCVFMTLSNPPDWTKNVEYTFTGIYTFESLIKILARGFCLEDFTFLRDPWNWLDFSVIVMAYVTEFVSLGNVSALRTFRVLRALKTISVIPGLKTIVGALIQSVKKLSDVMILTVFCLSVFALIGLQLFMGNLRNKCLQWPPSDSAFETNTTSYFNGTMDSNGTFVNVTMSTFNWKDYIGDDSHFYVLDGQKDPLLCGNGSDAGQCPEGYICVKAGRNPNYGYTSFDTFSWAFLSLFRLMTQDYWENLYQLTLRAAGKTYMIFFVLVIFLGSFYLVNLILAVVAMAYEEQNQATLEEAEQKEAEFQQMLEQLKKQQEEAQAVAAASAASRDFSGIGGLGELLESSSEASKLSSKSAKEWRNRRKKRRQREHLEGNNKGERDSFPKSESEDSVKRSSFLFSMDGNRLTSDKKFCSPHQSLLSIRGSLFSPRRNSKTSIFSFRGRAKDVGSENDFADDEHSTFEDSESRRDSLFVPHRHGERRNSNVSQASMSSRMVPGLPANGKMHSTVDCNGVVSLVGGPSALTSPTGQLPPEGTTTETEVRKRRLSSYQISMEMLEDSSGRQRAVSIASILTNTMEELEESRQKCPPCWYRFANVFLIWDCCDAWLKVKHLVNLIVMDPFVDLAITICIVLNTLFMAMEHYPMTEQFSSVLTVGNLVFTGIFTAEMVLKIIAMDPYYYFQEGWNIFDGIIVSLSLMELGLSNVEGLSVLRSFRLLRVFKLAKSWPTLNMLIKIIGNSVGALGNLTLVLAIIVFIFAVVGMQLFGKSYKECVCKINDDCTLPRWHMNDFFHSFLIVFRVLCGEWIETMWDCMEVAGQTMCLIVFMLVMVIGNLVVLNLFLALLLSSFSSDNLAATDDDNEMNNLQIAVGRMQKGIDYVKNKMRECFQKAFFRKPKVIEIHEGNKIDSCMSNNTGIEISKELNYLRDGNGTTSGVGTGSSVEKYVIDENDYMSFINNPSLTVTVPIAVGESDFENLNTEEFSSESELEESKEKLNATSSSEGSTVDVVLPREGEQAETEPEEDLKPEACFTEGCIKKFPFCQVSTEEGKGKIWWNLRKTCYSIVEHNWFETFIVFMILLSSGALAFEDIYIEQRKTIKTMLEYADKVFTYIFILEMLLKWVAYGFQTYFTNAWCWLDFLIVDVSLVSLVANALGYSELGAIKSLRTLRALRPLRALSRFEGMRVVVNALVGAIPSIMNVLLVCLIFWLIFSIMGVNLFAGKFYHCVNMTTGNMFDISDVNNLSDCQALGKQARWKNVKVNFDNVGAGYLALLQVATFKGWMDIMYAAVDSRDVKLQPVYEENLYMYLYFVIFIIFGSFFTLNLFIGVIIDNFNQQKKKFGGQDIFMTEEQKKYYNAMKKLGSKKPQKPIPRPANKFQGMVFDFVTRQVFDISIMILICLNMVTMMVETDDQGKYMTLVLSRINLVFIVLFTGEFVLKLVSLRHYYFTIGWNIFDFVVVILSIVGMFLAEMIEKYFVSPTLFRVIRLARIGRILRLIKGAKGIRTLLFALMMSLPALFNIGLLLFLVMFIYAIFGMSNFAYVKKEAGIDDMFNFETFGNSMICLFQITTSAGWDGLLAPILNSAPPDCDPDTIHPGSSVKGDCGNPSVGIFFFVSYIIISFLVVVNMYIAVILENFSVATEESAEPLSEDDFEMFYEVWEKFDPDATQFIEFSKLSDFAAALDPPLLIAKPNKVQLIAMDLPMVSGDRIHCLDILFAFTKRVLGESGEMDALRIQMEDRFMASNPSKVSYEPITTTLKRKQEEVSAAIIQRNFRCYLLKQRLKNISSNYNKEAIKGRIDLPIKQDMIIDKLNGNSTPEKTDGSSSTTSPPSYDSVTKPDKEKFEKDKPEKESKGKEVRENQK
Protoxin-II (β/ω-theraphotoxin-Tp2a), sequence (P83476 whole entry): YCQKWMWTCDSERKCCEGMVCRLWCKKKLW

“Protoxin-II (β/ω-theraphotoxin-Tp2a) (from UniProt P83476 1-30) (peptide)”: the pIC50 of inhibition of sodium current, automated patch clamp (QPatch); fitted Emax 100 % was 7.8 -log10(IC50) in experiment [1]; 7.6 -log10(IC50) in experiment [2]; 7.1 -log10(IC50) in experiment [3]; 7.5 -log10(IC50) in experiment [4]; 7.1 -log10(IC50) in experiment [5]; 6.4 -log10(IC50) in experiment [6].
